Tests used:
[1] = target: T1, huBTLA as coated in the binding ELISA of Example 3 (tag not stated) (human, UniProt Q7Z6A9 31-157); assay: ELISA, huBTLA coated at 0.333 ug/mL, anti-human IgG Fc-AP detection
T1 construct: Detection was with anti-human IgG Fc
T1 sequence: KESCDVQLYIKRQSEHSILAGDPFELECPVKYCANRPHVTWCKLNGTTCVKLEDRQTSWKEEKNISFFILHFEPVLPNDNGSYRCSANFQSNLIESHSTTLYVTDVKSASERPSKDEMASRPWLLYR
Procedure: (§1) BTLA binding of purified recombinant chimeric antibodies by ELISA: The huBTLA and rhesus monkey BTLA antigen binding ELISA was performed on the purified recombinant chimeric antibodies. Briefly, 384-well, clear flat bottom high binding plates (Corning, cat #3700) were coated overnight at 4° C. with 0.333 μg/mL of huBTLA or rhesus monkey BTLA in PBS. The following purified process was performed as described in ELISA binding assay in Example 2, except that the secondary antibody was goat anti human IgG Fc-AP (Southern Biotech, cat #2014-04).

[2] = target: T2, extracellular domain of human BTLA with FAS, expressed on Jurkat cells (human, UniProt Q7Z6A9 31-157; P25445 174-335, limits assumed); assay: cell-based or functional assay
T2 sequence (looked up): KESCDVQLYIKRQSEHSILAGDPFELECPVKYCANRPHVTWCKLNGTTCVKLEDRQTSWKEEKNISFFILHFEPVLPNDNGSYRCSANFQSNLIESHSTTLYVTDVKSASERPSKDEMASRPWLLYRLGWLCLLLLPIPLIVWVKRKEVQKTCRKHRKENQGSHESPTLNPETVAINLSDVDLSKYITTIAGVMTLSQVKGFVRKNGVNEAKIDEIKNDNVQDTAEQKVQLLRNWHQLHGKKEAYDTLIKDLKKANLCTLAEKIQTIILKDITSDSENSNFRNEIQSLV

[3] = target: T3, rhesus monkey BTLA extracellular domain protein with His tag (Sino Biological, cat #90250-C08H) (rhesus monkey, UniProt G7MKA9 31-157); assay: ELISA, plate coated with rhesus monkey BTLA, detection with goat anti-human IgG Fc-AP, OD405
T3 construct: extracellular domain; Bought protein; also called His-tag-rhesus monkey BTLA; not shown: His tag
T3 sequence: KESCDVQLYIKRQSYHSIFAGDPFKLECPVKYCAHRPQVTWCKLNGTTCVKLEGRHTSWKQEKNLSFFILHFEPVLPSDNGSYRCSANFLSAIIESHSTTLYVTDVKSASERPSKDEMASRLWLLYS
Procedure: as §1

[4] = target: T4, human BTLA (Uniprot Q7Z6A9) expressed on cells (human, UniProt Q7Z6A9 31-289); assay: flow cytometry on huBTLA-overexpressing Expi293 cells, MFI
T4 construct: whole, on cells; also called huBTLA-overexpressing Expi293 cells
Procedure: Expi293 cells stably overexpressing huBTLA were incubated with the chimeric anti-BTLA antibodies 83F2 or 86B7 in PBS containing 0.5% BSA, 1 mM EDTA, and 0.1% sodium azide (FACS buffer) for 30 minutes at 4° C. The cells were washed, and then incubated with 10 nM phycoerythrin (PE) conjugated anti-Human Fc Ab (BioLegend, cat #409304) for 20 minutes at 4° C. Cells were washed and then analyzed by flow cytometry with Attune (ThermoFisher Scientific). Data were analyzed with FlowJo software. Antibody binding is represented as median fluorescence intensity (MFI).
FACS based binding assays of humanized anti-BTLA antibodies were performed as described above in Example 3.

[5] = target: T4, human BTLA (Uniprot Q7Z6A9) expressed …; assay: cell-based or functional assay
[6] = target: T1, huBTLA as coated in the binding ELISA …; assay: ELISA, plate coated with huBTLA, detection with goat anti-human IgG Fc-AP, OD405
Procedure: as §1

[7] = target: T5, human BTLA extracellular domain with C-terminal mouse IgG2a Fc tag (human; mouse, UniProt Q7Z6A9 31-157); assay: blocking ELISA, huBTLA-mIgG2a Fc coated; competitor huHVEM-His (2 ug/ml)
T5 construct: also called huBTLA with mIgG2a Fc tag; not shown: mouse IgG2a Fc, C-terminal
T5 sequence: T1 sequence
Procedure: HVEM blocking by purified recombinant chimeric antibodies by ELISA: Human HVEM (huHVEM) blocking ELISA was performed on purified recombinant chimeric anti-BTLA antibodies. Briefly, 384-well, clear flat bottom high binding plates (Corning, cat #3700) were coated overnight at 4° C. with 0.333 μg/mL purified huBTLA with mIgG2a Fc tag in PBS (coating solution). After removing the coating solution, the plates were blocked by adding blocking buffer and incubated at 37° C. for 1 hour. Plates were then washed 3 times with wash buffer. Serial dilution of purified chimeric antibodies in PBS were added to individual well followed by incubation at 37° C. for 1 hour. Plates were washed 3 times with wash buffer. Then 30 μL per well of 2 μg/ml human HVEM with His tag (Sino Biological, cat #10334-H08H) in assay buffer was added into the reaction and incubated for 1 hour. Plates were washed 3 times with wash buffer. Then 30 μL per well of mouse anti-his-AP (Southern Biotech, cat: 4603-04) at 1:500 dilution in ELISA diluent was added, and incubated at 37° C. for 30 min, then the plates were washed 5 times with wash buffer and developed for 30 minutes with 30 μL per well of pNPP substrate. Plates were analyzed with a Bio-TEK at 405 nm. The blocking IC₅₀ value represents the antibody concentration that inhibited 50% of huHVEM binding to coated human BTLA.

[8] = target: T4, human BTLA (Uniprot Q7Z6A9) expressed …; assay: flow cytometry blocking on huBTLA-overexpressing Expi293 cells; competitor human HVEM-mouse IgG2a Fc
Procedure: Expi293 cells stably overexpressing huBTLA were incubated with chimeric anti-BTLA antibody 83F2 or 86B7 for 30 minutes at 4° C. The cells were washed, and then incubated with human HVEM-mouse IgG2a Fc recombinant protein (Acro Biosystems, cat #HVM-H5255) at […] concentration for 20 minutes at 4° C. The human HVEM bindings were detected by goat anti-mouse Alexa 488 secondary antibody (ThermoFisher, cat #A-11029). Cells were washed and acquired by flow cytometry with Attune. Data were analyzed with FlowJo software. BTLA binding is represented as MFI.

EC50 [1]: 0.0511 nM
EC50 of inhibition of huHVEM-Fc-induced apoptosis, Jurkat-huBTLA-FAS cells (ATP luminescence) [2]: 0.109 nM
EC50 (read off the curve) [3]: ~0.4 nM
EC50 (read off the curve) [4]: ~0.8 nM
EC50 of recovery of IL-2 production, Raji-HVEM/Jurkat-BTLA coculture [5]: 0.554 nM
EC50 (read off the curve) [6]: ~0.4 nM
IC50 [7]: 1.02 nM
IC50 [8]: 0.259 nM
B1: chimeric anti-BTLA antibody 86B7 (antibody, V domains shown)
VH: QVTLKESGPGILQPSQTLSLTCSFSGFSLSTFGMGVSWIRQPSGKGLEWLAHIYWDDDKRFNPSLKSRLSISKDTSNNQVFLKITTVDTADTATYYCARGNWDGETYFDYWGQGTTLTVSS
VL: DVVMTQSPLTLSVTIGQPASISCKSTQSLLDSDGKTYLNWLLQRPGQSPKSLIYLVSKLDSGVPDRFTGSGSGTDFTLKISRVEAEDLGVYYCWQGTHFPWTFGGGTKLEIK

Source: patent US20260035464A1 (STAIDSON BIOPHARMA, published 2026)
